What was measured:
[1] = target: gdir_arath GDI1 (UniProt Q9SFC6)
[2] = target: gdir_arath GDI1 (UniProt Q9SFC6); remark: listed apart in the source

gdir_arath GDI1, sequence (Q9SFC6 whole entry): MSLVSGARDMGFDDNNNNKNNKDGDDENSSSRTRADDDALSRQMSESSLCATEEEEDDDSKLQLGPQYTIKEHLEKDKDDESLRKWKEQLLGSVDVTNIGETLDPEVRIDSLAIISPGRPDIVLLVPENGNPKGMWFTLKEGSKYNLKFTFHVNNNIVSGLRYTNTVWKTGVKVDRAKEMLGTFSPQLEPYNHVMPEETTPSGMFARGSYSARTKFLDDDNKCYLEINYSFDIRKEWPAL
Rac-like GTP-binding protein ARAC5 (Arabidopsis thaliana (Mouse-ear cress)), Q38937 T20N, sequence (Q38937 whole entry T20N): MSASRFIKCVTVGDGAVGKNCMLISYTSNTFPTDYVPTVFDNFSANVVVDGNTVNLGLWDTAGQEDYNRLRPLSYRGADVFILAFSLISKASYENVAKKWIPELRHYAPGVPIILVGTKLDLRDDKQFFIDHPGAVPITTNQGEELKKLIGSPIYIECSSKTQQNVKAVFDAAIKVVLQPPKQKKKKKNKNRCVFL
Rac-like GTP-binding protein ARAC3 (Arabidopsis thaliana (Mouse-ear cress)), Q38912 T20N, sequence (Q38912 whole entry T20N): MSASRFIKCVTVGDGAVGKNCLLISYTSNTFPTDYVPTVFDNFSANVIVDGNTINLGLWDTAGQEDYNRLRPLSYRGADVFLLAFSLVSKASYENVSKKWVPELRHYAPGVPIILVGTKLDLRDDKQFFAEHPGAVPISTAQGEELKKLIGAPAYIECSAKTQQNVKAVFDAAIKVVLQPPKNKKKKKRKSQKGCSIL

| effect of a mutation on the interaction [1] | effect of a mutation on the interaction [2] | Substance |
| --- | --- | --- |
| disrupting interaction | – | Rac-like GTP-binding protein ARAC3 (Arabidopsis thaliana (Mouse-ear cress)), Q38912 T20N |
| – | disrupting interaction | Rac-like GTP-binding protein ARAC5 (Arabidopsis thaliana (Mouse-ear cress)), Q38937 T20N |

— IntAct's records for PubMed 10798620
